Patent US12018327B2, “Methods and compositions relating to epoxide hydrolase genes” (The Regents of the University of California, priority 2018, dated 2024)

T1: PPARγ (Homo sapiens, UniProt P37231)
T1 sequence (P37231 1-505): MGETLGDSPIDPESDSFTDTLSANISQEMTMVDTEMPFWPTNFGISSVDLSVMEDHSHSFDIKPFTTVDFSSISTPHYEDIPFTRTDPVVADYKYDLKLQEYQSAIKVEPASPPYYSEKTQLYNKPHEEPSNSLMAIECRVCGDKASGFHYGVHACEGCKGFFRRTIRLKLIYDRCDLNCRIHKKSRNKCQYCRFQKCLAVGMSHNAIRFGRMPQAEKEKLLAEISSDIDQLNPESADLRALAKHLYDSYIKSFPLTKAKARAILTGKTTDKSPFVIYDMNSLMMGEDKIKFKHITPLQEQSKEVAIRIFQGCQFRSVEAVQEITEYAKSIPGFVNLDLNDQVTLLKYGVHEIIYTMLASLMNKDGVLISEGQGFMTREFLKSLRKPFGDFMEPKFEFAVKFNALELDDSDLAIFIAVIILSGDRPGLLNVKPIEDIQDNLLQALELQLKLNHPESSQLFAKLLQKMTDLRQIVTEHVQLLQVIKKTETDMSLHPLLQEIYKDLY

B1: YP_003971091: Bifidobacterium bifidum PRL2010 hydrolase (epoxide hydrolase) encoded by Gene 2, expressed in E. coli (protein)
chain: MSQHQVTTRQRRNVVLLDLDGTLTQSDPGIIACATKAFEELSLPVPDDQEMHRFIGPAIIESFRRNHMPDELLDRGVEIYREYYADKAVFDDPNNPGHKIPGRLYNSVYAGIPEQLAALRADGLHLAIATCKPQYQAEPVCEHFHLDTMVDGIYGASTDNSRIDKDQVIRYCFDSIGFDADAGDRALMVGDRWTDVDGAIACGLDCLGCRWGYAEAGELEEHGAYRIIDTVDELAAAVNDYFAK
B2: YP_003971333: Bifidobacterium bifidum PRL2010 hydrolase (epoxide hydrolase) encoded by Gene 3, expressed in E. coli (protein)
chain: MASDDIMTAGAGGATATVRADIKAAFFDIDGTLTSFVTHVIPQSSIDALHELQDRGVKVFICSGRAPSHMTVVLDMMPVHFDGIIALNGQYCFDDHGLLEKESLLPEDIVTITRWLDEHPDVVANYCEKDYVYFNQITDAMRATWRQLGKTAPTVNIDDPHERALKHETFQISPYISFEDEAKLSGMCRNVRGVRWHPDFTDLIPADGGKPEGMKRFMRHYGWTREQTIAFGDGGNDADMLAFAGIGVAMGNATEPAKAAADYITDDVDHDGIMNALKHFNVL
B3: NP_814872: Enterococcus faecalis epoxide hydrolase (HAD superfamily hydrolase) encoded by Gene 1, expressed in E. coli (protein)
chain: MSIKLVAIDIDGTLLNSQHKITPRVKEALQKANEQGVRIVLCTGRPLPGVKEQLDELALYGENDFVITYNGSLVQATKDNTIISRYTLSYEDFLEIEMYSRKVGAHLHTIDDSAIYTANRNIGKYTIHEASLVNMPLKYRTVDEMTPEMNIIKMMMIDEPEVLDPAIAKLPLHFTEKYTTVKSTPFYYEIMNKNASKGNALAKLADHLGLNKDEVMAIGDNENDLSMIDYAGIGVAMGNATENVKTIADVHTTSNDEDGVAQIIEKMVLI

Key:
[1] = target: T1, PPARγ; settings: ref [19]; cited from earlier work
[2] = Colorimetric detection of EH activity, 12,13 EpOME; format: biochemical; settings: gene expressed in E. coli BL21

Molecule | action on PPARγ [1] | conversion of 12,13 EpOME into 12,13 DiHOME [2]
CCCCC/C=C\CC(O)C(O)CCCCCCCC(=O)O (stereo not shown) [9,10 DiHOME] | known agonist | 
B1 |  | could convert
B2 |  | could convert
B3 |  | could convert
